Data as given in patent publication US7763704B2, “Sushi peptide multimer” (priority 2003, dated 2010).

Tests used:
[1] = Surface plasmon resonance (BIAcore 2000, HPA chip) realtime interaction analysis between peptides and LPS; format: binding; conditions: 20 mM Tris-Cl, pH7.3; HPA chip immobilized with lipid A; mean of three independent experiments
Experimental: Surface plasmon resonance (SPR) analysis of the real time interaction between peptides and LPS was performed with BIAcore 2000 (Pharmacia) using HPA chip (Tan et al, 2000b). The affinity constant was calculated using BIAevaluation software 3.0. The mean values were obtained from three independent experiments.
At 4 μg/ml, both recombinant peptides reached saturation of binding to LPS (FIG. 4), while the chemically synthesized peptide continued linearly and required 20 μg/ml to reach saturation of binding with LPS (data not shown). The EBC50 (Endotoxin Binding Concentration) of the peptide, which achieves 50% of maximum binding to LPS on the ELISA plate, reflects the binding activity of peptide to LPS, with the lower EBC50 indicating higher potency. […] The kinetics of binding of peptides to LPS in 20 mM Tris-Cl, pH7.3, was also measured by SPR analysis with BIAcore 2000 using HPA chip, which was immobilized with lipid A (bioactive moiety of LPS). The Kd values of chemically synthesized S3, rS3-1mer and rS3-4mer are (7.80±2.18)×10^−7 M, (4.74±2.34)×10^−8 M, (1.71±1.86)×10^−8 M, respectively.

[2] = ELISA-based LPS binding assay; parameters: species or system Escherichia coli 055:B5; conditions: peptide concentration achieving 50% of maximum binding to LPS on the ELISA plate
Experimental: LPS was coated overnight on 96-well plates. Varying concentrations of peptides were allowed to interact with the immobilized LPS. The amount of bound peptides was determined by rabbit anti-S3 IgG and quantitated by ABTS substrate. The average OD405nm of the triplicate samples were calculated and plotted with the corresponding concentration.
The polysorp 96-well plate (MaxiSorp™, Nunc) was first coated with 100 μl per well of 4 μg/ml (approximately 1 μM) of LPS diluted in pyrogen-free phosphate-buffered saline (PBS). The plate was sealed and incubated overnight at room temperature. The wells were aspirated and washed 4 times with 300 μl wash solution (PBS containing 0.05% Tween-20). The wells were blocked with wash solution containing 2% BSA for 1 h at room temperature. After washing 2 times, varying concentrations of peptides were allowed to interact with bound LPS at room temperature for 3 h. Bound peptides were detected by incubation with rabbit anti-S3 antibody and 1:2000 of goat anti-rabbit antibody conjugated with HRP. Each antibody was incubated for 2 h at 37° C. In the final step, 100 μl of substrate, ABTS (Boehringer Mannheim), was added. The absorbance was measured at 405 nm with reference wavelength at 490 nm.

[3] = test system: LPS-induced hTNF-α secretion in THP-1 cells; experiment: Suppression of LPS-induced hTNF-α secretion in human THP-1 cells; format: cell-based; conditions: for ENC50, concentration to achieve 50% inhibition of LPS-induced hTNF-α production: THP-1 cells incubated with 50 EU/ml of LPS, 6 h
Experimental: THP-1 cells were cultured at 37° C. in a humidified environment in the presence of 5% CO2. RPMI 1640 medium was supplemented with 10% fetal bovine serum (FBS), penicillin (100 U/ml), and streptomycin (100 μg/ml). The cells were maintained at a density of 2.5×10^5-6 cells/ml. THP-1 monocytes were transformed into macrophages by addition of phorbol myristic acid, PMA (Sigma) at a stock of 0.3 mg/ml in dimethyl sulfoxide to give a final concentration of 30 ng/ml and 0.01% dimethyl sulfoxide. PMA-treated cell suspensions were immediately plated into 96-well microtiter plate at a density of 4×10^5 cells/ml and allowed to differentiate for 48 h at 37° C. The culture medium was removed and the cells were washed twice with serum-free RPMI 1640. Thereafter, the macrophages were stimulated with 50 EU/ml LPS (a specific activity of LPS that has been standardized by LAL test against FDA-approved LPS standards), peptides alone or LPS (preincubated with various concentrations of peptides) and incubated at 37° C. After 6 h, the culture medium was collected and hTNF-α concentration in the supernatants was assayed using ELISA.

[4] = test system: LPS-induced limulus amoebocyte lysate (LAL) reaction; experiment: Endotoxin neutralization assay based on anti-LAL test (LAL Kinetic-QCL); format: biochemical, Escherichia coli 055:B5; conditions: for ENC50 (50% endotoxin-neutralizing concentration), inhibition of LPS-induced LAL assay: against 5 EU/ml of LPS
From the text: The LAL Kinetic-QCL kit utilizes the initial part of the LPS-triggered cascade in limulus amoebocyte lysate to achieve an enzymatic reaction, which catalyses the release of p-nitroaniline from a synthetic substrate, producing a yellow color, which is quantifiable by absorbance at 405nm. The ENC50 (Endotoxin Neutralization Concentration) refers to the peptide concentration required to neutralize 50% of a predetermined quantity of endotoxin. A low ENC50 indicates high potency of the peptide for endotoxin neutralization.
In this assay, peptides of different concentrations were incubated for 1 h at 37° C. with or without an equal volume of LPS in disposable, endotoxin-free borosilicate tubes. Fifty microliters of each mixture was then dispensed into wells of a sterile microtiter plate (Nunclon™ Δsurface, Nunc). Fifty microliters of freshly reconstituted LAL reagent was dispensed into each well.

[5] = compared with rS3-1mer and chemically synthesized S3

Question: Which Kd [1] does the source give for “rS3-1mer: recombinant S3 monomer from acid digestion of rS3-4mer, with additional Asp and Pro at the ends, SEQ ID NO:7 (PHAEHKVKIGVEQKYGQFPQGTEVTYTCSGNYFLMD)” here?
Answer: The Kd was 47.4 nM.

Question: What about the “EBC50 (Endotoxin Binding Concentration)” value [2] of the same molecule?
Answer: Its value is 1.02 µg/mL.

Question: What about the “ENC50, concentration to achieve 50% inhibition of LPS-induced hTNF-α production” value [3] of the same molecule?
Answer: Its value is 83.2 µg/mL.

Question: And the “ENC50 (50% endotoxin-neutralizing concentration), inhibition of LPS-induced LAL assay” value [4]?
Answer: The value was 9.2 µg/mL.

B1: rS3-4mer: recombinant tetramer of S3 peptide in tandem repeat with Asp-Pro linkers, 18.4 kDa, SEQ ID NO:9 (protein)
chain: PQDPHAEHKVKIGVEQKYGQFPQGTEVTYTCSGNYFLMDPQDPHAEHKVKIGVEQKYGQFPQGTEVTYTCSGNYFLMDPQDPHAEHKVKIGVEQKYGQFPQGTEVTYTCSGNYFLMDPQDPHAEHKVKIGVEQKYGQFPQGTEVTYTCSGNYFLMD
Question: Which Kd [1] does the source give for B1 here?
Answer: The Kd was 17.1 nM.

Question: What about the “EBC50 (Endotoxin Binding Concentration)” value [2] of the same molecule?
Answer: Its value is 0.41 µg/mL.

Question: What about the “ENC50, concentration to achieve 50% inhibition of LPS-induced hTNF-α production” value [3] of the same molecule?
Answer: Its value is 40.4 µg/mL.

Question: What about the “fold higher anti-LPS activity than the monomers (suppression of TNF-α release)” value [3, 5] of the same molecule?
Answer: Its value is 2 fold.

Question: And the “ENC50 (50% endotoxin-neutralizing concentration), inhibition of LPS-induced LAL assay” value [4]?
Answer: Its value is 5.4 µg/mL.

Question: And the “fold stronger LPS neutralization efficacy than the monomeric peptides (LAL inhibition)” value [4, 5]?
Answer: The value was 2 fold.
